Laboratory results published in US20230025129A1 (KYMAB, published 2023).
Numbering of substitutions follows the chain as printed.

T1: human matriptase-2 ECD protein his tag (human, UniProt Q8IU80 78-811)
T1 sequence: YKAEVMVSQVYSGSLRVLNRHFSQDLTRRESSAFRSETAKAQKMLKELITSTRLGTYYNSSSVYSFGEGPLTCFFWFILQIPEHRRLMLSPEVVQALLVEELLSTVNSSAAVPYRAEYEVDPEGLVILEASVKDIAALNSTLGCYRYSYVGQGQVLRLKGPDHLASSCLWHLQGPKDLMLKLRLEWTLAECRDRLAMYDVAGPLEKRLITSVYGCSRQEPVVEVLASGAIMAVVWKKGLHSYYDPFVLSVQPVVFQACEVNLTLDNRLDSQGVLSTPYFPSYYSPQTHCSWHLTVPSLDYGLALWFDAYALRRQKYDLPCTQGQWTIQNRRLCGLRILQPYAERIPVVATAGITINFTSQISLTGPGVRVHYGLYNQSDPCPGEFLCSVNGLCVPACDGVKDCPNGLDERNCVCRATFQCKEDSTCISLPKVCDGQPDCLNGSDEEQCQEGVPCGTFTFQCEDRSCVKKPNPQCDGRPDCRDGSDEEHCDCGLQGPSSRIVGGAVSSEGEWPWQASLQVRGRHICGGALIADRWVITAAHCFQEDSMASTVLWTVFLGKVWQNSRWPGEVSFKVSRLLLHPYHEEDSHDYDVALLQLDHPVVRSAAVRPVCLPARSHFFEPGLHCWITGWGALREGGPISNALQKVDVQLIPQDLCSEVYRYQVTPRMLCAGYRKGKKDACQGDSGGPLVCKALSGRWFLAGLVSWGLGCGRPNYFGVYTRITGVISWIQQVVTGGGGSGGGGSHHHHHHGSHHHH

T2: mouse matriptase-2 ECD protein his tag (mouse, UniProt Q9DBI0 80-811)
T2 sequence: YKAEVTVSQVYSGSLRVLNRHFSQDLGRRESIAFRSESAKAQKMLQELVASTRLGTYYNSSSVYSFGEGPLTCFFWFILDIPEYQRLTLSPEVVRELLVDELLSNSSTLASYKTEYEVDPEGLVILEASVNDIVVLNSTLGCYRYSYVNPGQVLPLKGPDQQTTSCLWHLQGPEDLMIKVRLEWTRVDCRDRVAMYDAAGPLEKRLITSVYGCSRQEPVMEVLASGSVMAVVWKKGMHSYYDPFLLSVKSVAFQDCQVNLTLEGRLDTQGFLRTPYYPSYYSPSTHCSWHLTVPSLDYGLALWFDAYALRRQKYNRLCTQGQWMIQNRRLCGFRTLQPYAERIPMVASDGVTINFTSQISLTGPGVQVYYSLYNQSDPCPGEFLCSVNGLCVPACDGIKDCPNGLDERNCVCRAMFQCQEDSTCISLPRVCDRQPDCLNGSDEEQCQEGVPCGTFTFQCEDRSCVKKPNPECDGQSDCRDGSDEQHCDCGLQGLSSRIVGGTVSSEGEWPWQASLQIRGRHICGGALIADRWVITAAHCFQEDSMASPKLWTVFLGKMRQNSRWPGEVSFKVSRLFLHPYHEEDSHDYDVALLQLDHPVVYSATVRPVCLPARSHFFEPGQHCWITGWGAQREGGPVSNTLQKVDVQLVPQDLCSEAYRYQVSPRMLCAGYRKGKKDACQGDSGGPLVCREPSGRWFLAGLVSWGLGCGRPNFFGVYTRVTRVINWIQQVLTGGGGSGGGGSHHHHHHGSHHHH

T3: human MTP-2 expressed on HEK293 cells (human, UniProt Q8IU80 1-811)
T3 sequence: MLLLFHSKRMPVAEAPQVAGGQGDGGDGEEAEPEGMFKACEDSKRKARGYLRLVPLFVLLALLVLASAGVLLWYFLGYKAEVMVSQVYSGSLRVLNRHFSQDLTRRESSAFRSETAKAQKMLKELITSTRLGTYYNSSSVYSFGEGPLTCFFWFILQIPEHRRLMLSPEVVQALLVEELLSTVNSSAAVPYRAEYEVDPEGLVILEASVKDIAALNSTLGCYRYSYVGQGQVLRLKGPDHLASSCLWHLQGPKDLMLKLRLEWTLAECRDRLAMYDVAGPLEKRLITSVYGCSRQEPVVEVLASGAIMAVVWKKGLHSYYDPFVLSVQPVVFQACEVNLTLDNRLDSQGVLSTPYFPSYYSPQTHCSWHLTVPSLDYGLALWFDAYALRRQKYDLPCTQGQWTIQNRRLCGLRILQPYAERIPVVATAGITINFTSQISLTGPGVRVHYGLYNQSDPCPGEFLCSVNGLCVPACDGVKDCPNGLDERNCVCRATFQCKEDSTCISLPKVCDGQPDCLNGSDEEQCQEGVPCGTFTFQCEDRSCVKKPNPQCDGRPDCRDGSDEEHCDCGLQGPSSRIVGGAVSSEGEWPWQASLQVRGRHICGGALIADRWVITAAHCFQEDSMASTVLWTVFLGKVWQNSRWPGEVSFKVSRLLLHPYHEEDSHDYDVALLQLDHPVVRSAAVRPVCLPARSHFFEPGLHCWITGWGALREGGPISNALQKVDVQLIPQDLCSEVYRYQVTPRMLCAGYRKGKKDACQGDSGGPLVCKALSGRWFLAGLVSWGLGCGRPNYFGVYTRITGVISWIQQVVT

B1: NORI-022 (antibody, human IgG4 S228P, lambda, V domains shown)
VH: EVRLVESGGGLVQSGGSLRLSCAASGFTFSTYTMNWVRQAPGKGLEWVSYISIRNSIIDYADSVKGRFTISRDNAKNSLYLQMNSLRDEDTAVYYCAREEFCGTTSCYFLDYWGQGILVTVSS
VL: QSVLTQPPSVSGAPGQRVTISCTGSSSNIGAGYDVHWYQQLPGTAPKLLIYGNSNRPSGVPDRFSGSKSGTSASLAITGLQAEDEADYYCQSYDSSLSGYVFGTGTKVTVLG
B2: NORI-023 (antibody, human IgG4 S228P, lambda, V domains shown)
VH: QVQLVESGGGLVKPGGSLRLSCAASGFTFSDYYMSWIRQAPGKGLEWVSYISSSGGNRYYADSVKGRFTISRDNAKNSLYLQMNSLRAEDTAVYYCARGGLRYFDWADFWGQGTLVTVSS
VL: QSVLTQPPSVSAAPGQKVTISCSGSSSNIGNNYVSWYQQLPGTAPKLLIYDNNKRPSGIPDRFSGSKSGTSATLGIPELQTGDEADYYCGTWDNSLSAGVFGGGTKLTVLG
B3: NORI-024 (antibody, human IgG4 S228P, lambda, V domains shown)
VH: QVQLVQSGPELKKPGASVKVSCKASGYTFTNFGISWVRQAPGQGLEWMGWISAYSGFTNFAQKFQGRVSMTTDTSTSTVYMELKSLRSDDTAVYYCAREGYSNYEDWFDPWGQGTLVTVSS
VL: SYELTQPPSVSVSPGQTARITCSGDALPKKYAYWYQQKSGQAPVLVIYEDSKRPSGIPERISGSNSGTMATLTISGAQVEDEADYYCYSTDSSGNHRVFGGGTKLTVLG
B4: NORI-025 (antibody, human IgG4 S228P, lambda, V domains shown)
VH: QVQLVESGGGVVQPGRSLRLSCTASGVTFTNFDMHWVRQTPGKGLEWVAVIWYDESYSYYADSVQGRFTISRDNSKNSLYLQMNSLRADDTAVYYCARGWTGSYVFDYWGQGTLVTVSS
VL: QSVLTQPPSVSEAPRQRVTISCSGSSSNIGNNAVNWYQQLPGKAPKLLISYDDLLPSGVSDRFSGSKSGTSASLAISGLQSADEADYYCAAWDDSLNAVVFGGGTKLTVLG
B5: NORI-026 (antibody, human IgG4 S228P, kappa, V domains shown)
VH: QVQLVESGGGVVQPGRSLRLSCAASGFTFSYFGMHWVRQAPGKGLEWVADISYDGSDENYADSVKGRFTISRDNSKNTLSLQMNSLRAEDTAVYYCAKETYQSLMYLEYWGQGILVTVSS
VL: AIQMTQSPSSLSASVGDRVTITCRASQDIRNDLGWYQQKPGKAPKLLIYTAPSLQSGVPSRFSGSGSGTDFTLTIGSLQPEDFATYYCLQDYNYPWTFGQGTKVEIKR
B6: NORI-027 (antibody, human IgG4 S228P, lambda, V domains shown)
VH: B3 VH with P9A, T30N, F32Y, F57Y, F60I, S69T, S77N, K84G, Y104F
VL: B3 VL with A26E
B7: NORI-028 (antibody, human IgG4 S228P, lambda, V domains shown)
VH: EVQLVESGGAVVRPGGSLRLSCAISGFILDDYGMNWVRQGPGKGLEWVAGISWNGDSTRYADSVKGRFTISRDNAQNSLYLQMNSLRAEDTALYFCAREYSGDFYYYYYGMDVWGQGTTVTVSS
VL: QSALTQPPSASGSPGQSVTISCTGTSSDVGFYNFVSWYQHHPGKAPKLMIYEVSKRPSGVPDRFSGSKSANTASLTVSGLQAEDEADYYCSSYAGSNNLVFGGGTKLTVLG
B8: NORI-029 (antibody, human IgG4 S228P, lambda, V domains shown)
VH: EVQLVESGGGLVKPGRSLRLSCTASGFTFGDYVMSWFRQAPGKGLEWVGFIRSKPYSETTEYAASVRGRFTISRDDSKSIAYLQMNSLKTEDTAVYYCTRALYDLLTGPWMGGDYFYALDVWGQGTTVTVSS
VL: B7 VL with F31D, F34Y, H40Q, A70G, S91K
B9: NORI-030 (antibody, human IgG4 S228P, lambda, V domains shown)
VH: QVQLVESGGGVVQPGRSLRLSCAASGFTFSNFDMDWVRQAPGRGLEWVALISYDGSKKYYADSVKGRFTISRDNSKNTLYLQMNSLRGEDTAVYFCAKEGYGGYDGFDYWGQGTLVTVSS
VL: B4 VL with S26T, D53Y, L54V, L55V, P56S, A90S, A91T, S95G, A98G
B10: NORI-031 (antibody, human IgG4 S228P, lambda, V domains shown)
VH: QLQLQESGPGLVKPSETLSLTCTVSGGAISSSNYFWGWIRQSPGKGLEWIGSMYYTGITYYNPSLKSRVTISVDTSKNQLSLKVNSVTAADTAVYYCARQDGFRTGWFDPWGQGTLVTVSS
VL: SYELTQPPSVSVSPGQTATLTCSGDKLGDNYVCWFQQKPGQSPLLVMYQDTKRPSGIPERFSGSNSGNTATLTISGTQALDEADYYCQAWDSRTVVFGGGTKLTVLG
B11: NORI-032 (antibody, human IgG4 S228P, lambda, V domains shown)
VH: QVQLVQSGAEVRKPGAAVKVSCKASGYTFSSFGITWIRQAPGQGLEWMGWISAYNGISNSAQKVQGRVTMTTDTSTSTAYMELRSLRSDDSAVYYCARDRANRDALDVWGQGTKVTVSL
VL: SHELTQPPSMSVSPGQTASITCSGDELGDRYACWYQQKPGQSPVLVIYQDTKRPSGIPERFSGSISGNTATLTISGTQAMDEADYYCQAWDSSTVVFGGGTKLTVLG

target: T1, human matriptase-2 ECD protein his tag; assay: cell-based or functional assay

Binder | Inhibition enzymatic activity human MTP2 protein (IC50)
B1 | 4.36 nM
B2 | 5.45 nM
B3 | 10.5 nM
B4 | 3.27 nM
B5 | 5.11 nM
B6 | 24.9 nM
B7 | 11.8 nM
B8 | 2 nM
B9 | 1.88 nM
B10 | 10.3 nM
B11 | 1.6 nM

target: T2, mouse matriptase-2 ECD protein his tag; assay: cell-based or functional assay

Binder | Inhibition enzymatic activity mouse MTP2 protein (IC50)
B1 | 2.98 nM
B2 | 2.92 nM
B3 | 6.8 nM
B4 | 6.21 nM
B5 | 6.22 nM
B6 | 40.8 nM
B7 | 8.96 nM
B8 | 9.35 nM
B9 | 6.66 nM
B10 | 27 nM
B11 | 0.716 nM

target: T3, human MTP-2 expressed on HEK293 cells; assay: cell-based or functional assay

Binder | Inhibition enzymatic activity human MTP2 on cells (IC50)
B1 | 0.765 nM
B2 | 13.2 nM
B3 | 8.04 nM
B4 | 1.88 nM
B5 | 0.817 nM
B6 | 16.9 nM
B7 | 3.85 nM
B8 | 0.243 nM
B9 | 0.227 nM
B10 | 3.51 nM
B11 | 1.66 nM
